# Data: patent US20190106502A1
# Biological target: CD20 (B-lymphocyte antigen CD20) (human) (UniProt P11836)
# Assay: cell-based or functional assay
# Sequence of CD20 (B-lymphocyte antigen CD20) (human) (P11836 whole entry): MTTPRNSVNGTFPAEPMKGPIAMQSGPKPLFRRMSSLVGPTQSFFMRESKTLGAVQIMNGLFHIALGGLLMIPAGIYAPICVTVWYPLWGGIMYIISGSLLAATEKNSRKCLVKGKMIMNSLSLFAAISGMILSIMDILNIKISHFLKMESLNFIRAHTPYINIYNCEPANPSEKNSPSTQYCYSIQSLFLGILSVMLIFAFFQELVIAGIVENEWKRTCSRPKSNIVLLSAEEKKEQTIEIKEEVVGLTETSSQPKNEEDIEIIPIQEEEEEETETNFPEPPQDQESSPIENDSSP
row,Substance,EC50 (ng/ml) values of direct cell death induction using Z-138 (% total AnnV positive cells)
1,GA101-P151F P329G L234A L235A (antibody),133 ng/mL
2,GA101-P151F hin del (on GA101 P329G L234A L235A backbone) (antibody),68.4 ng/mL
3,GA101-V11F P151F (on GA101 P329G L234A L235A backbone) (antibody),112 ng/mL
4,GA101-V11F P151F hinge del (on GA101 P329G L234A L235A backbone) (antibody),171 ng/mL
5,GA101-V11F P329G L234A L235A (antibody),131 ng/mL
6,GA101-hinge del P329G L234A L235A (antibody),155 ng/mL
